One block for each binder: values may come before it.
What was measured:
human FcγRIIb [1] = target: T1, human FcγRIIb (human, UniProt P31994 43-217, limits assumed); assay: ratio of SPR KD values: KD for FcγRIIaR divided by KD for FcγRIIb
T1 construct: Whole entry (AAI46679.1); also called FcγIIB; FcgRIIb
T1 sequence: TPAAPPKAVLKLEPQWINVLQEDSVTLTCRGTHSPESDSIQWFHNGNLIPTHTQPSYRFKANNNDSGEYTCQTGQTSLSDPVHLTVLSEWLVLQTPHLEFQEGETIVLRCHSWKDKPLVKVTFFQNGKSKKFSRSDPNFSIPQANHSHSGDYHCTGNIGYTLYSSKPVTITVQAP
Description: Next, interaction between these antibodies and FcγR was analyzed kinetically using the BIACORE™ T100 (GE Healthcare). The interaction was measured at a temperature of 25° C. using HBS-EP+ (GE Healthcare) for the running buffer. The Series S Sensor Chip CM5 (GE Healthcare) was used after immobilizing Protein A by amine coupling. […] Antibody captured on the chip was washed by allowing 10 mM glycine-HCl (pH 1.5) to react following measurement. The chip regenerated in this manner was used repeatedly. The dissociation constant KD (mol/L) was calculated from the association rate constant ka (L/mol/s) and dissociation rate constant kd (1/s) as calculated by global-fitting the measurement results with a 1:1 Langmuir binding model using the BIACORE™ Evaluation Software.
Furthermore, KD(IIaR)/KD(IIb) and KD(IIaH)/KD(IIb) in the table respectively represent the value obtained by dividing the KD value of each variant for FcγRIIaR by the KD value of each variant for FcγRIIb, and the value obtained by dividing the KD value of each variant for FcγRIIaH by the KD value of each variant for FcγRIIb.

human FcγRIIIa(F) = target: T2, human FcγRIIIa(F) (human, UniProt P08637 17-208, limits assumed); assay: SPR, antibody captured, FcγR as analyte, capture-corrected binding amount
T2 construct: the assay used allotype F; also called FcgRIIIaF; FcγRIIIa allotype F158
Description: Interaction between each modified antibody and Fcγ receptor prepared in the manner described above was analyzed using the BIACORE™ T100 surface plasmon resonance system (GE Healthcare), BIACORE™ T200 surface plasmon resonance system (GE Healthcare), BIACORE™ A100 surface plasmon resonance system or BIACORE™ 4000 surface plasmon resonance system. HBS-EP+(GE Healthcare) was used for the running buffer, and measurements were carried out at 25° C. The chips used were chips in which antigen peptides, Protein A (Thermo Scientific), Protein A/G (Thermo Scientific) or Protein L (ACTIGEN® protein (Alltech or BioVision) were immobilized on the Series S Sensor Chip CM5 (GE Healthcare) or Series S Sensor Chip CM4 (GE Healthcare) by amine coupling, or chips in which preliminarily biotinylated antigen peptides were allowed to interact and then immobilized on the Series S Sensor Chip SA (certified) (GE Healthcare). The target antibodies were captured on these sensor chips, Fcγ receptor diluted with the running buffer was allowed to interact, followed by measurement of the amount of bound antibody. The amounts bound were compared between antibodies. However, since the amount of Fcγ receptor bound depends on the amount of captured antibody, the values used for comparison were first corrected by dividing the amount of Fcγ receptor bound by the captured amount of each antibody. Through reaction with 10 mM glycine-HCl at pH 1.5, the sensor chips were regenerated by washing off antibody captured on the sensor chips and used repeatedly.
Binding strength was evaluated according to the following method based on the results of analyzing the interaction with each FcγR. […] That value was then further multiplied by 100, and the resulting value was used as an indicator of relative binding activity to each FcγR.

human FcγRIa = target: T3, human FcγRIa (human, UniProt P12314 16-292, limits assumed); assay: SPR (Biacore), antibody captured by Protein L, FcγR as analyte, pH 7.4, 25 C;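 note: Buffer-blank-subtracted FcγR response, normalized to the captured antibody level and scaled to 1500 RU of captured antibody, CM4 chip, ACES-NaCl running buffer with polysorbate 20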
T3 construct: Soluble analyte in SPR; also called hFcgRIa; FcgRIa
Description: (§1) Binding activity between the antibodies and human FcγRIa, FcγRIIa(H), FcγRIIa(R), FcγRIIb and FcγRIIIa(F) (hereinafter referred to as human FcγRs) was evaluated using the BIACORE™ T100 or T200 surface plasmon resonance system (GE Healthcare). The antibodies being tested were captured by Protein L (ACTIGEN® protein (Alltech)) that was immobilized in suitable amounts on the CM4 Sensor Chip (GE Healthcare) by amine coupling. Next, the diluted human FcγRs and a running buffer used as a blank were injected to allow interaction with the antibodies captured on the sensor chip. A buffer consisting of 20 mmol/L N-(2-acetamido)-2-aminoethanesulfonic acid (ACES), 150 mmol/L NaCl and 0.05% (w/v) polysorbate 20 (Tween 20®) (pH 7.4) was used for the running buffer, and this buffer was also used to dilute the human FcγRs. 10 mmol/L glycine-HCl (pH 1.5) was used to regenerate the sensor chip. All measurements were carried out at 25° C.
(§2) Binding activity to human FcγRs can be represented by the relative binding activity to human FcγRs. Antibody was captured by Protein L, and the amount of change in a sensorgram before and after the antibody was captured was defined as X1. Next, human FcγRs were allowed to interact with the antibody, and the value obtained by subtracting binding activity of human FcγRs represented as the amount of change in a sensorgram before and after allowing the running buffer to interact with antibody captured by Protein L (ΔA2) from the value obtained by multiplying by 1500 the value obtained by dividing the binding activity of human FcγRs represented as the amount of change in a sensorgram before and after that interaction (ΔA1) by the captured amount (X) of each antibody, was divided by the captured amount of each antibody (X) followed by multiplying by 1500 to obtain the binding activity of the human FcγRs (Y) (Equation 2).

[2] = target: T4, human FcγRIIa(R) (allotype R131) (human, UniProt P12318 36-217); assay: as above
T4 construct: Soluble analyte in SPR; also called hFcgRIIa(R); FcgRIIaR
T4 chain: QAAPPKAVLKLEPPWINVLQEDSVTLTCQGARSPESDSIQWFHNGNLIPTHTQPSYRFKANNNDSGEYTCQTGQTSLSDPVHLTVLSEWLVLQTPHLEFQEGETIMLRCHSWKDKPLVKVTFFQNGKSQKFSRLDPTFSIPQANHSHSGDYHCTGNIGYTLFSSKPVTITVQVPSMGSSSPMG
Description: as §1, §2

[3] = target: T5, human FcγRIIa(H) (allotype H131) (human, UniProt P12318 36-217); assay: as above
T5 construct: Soluble analyte in SPR; also called hFcgRIIa(H); FcgRIIaH
T5 sequence: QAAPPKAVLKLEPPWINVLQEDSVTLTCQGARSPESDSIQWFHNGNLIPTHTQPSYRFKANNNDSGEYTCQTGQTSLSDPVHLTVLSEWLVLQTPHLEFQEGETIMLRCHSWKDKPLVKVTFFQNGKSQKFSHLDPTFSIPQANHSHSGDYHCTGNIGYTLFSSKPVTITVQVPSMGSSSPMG
Description: as §1, §2

human FcγRIIb [4] = target: T6, human FcγRIIb (human, UniProt P31994 43-217, limits assumed); assay: as above
T6 construct: Soluble analyte in SPR; also called hFcgRIIb; FcgRIIb
T6 sequence: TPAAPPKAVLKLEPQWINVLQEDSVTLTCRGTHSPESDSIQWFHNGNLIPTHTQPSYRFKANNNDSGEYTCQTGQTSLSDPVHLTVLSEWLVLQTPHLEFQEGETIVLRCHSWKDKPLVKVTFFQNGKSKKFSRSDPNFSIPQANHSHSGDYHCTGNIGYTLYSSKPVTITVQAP
Description: as §1, §2

[5] = target: T7, human FcγRIIIa(F) (allotype F158) (human, UniProt P08637 17-208, limits assumed); assay: as above
T7 construct: also called hFcgRIIIa(F); FcgRIIIaF
Description: as §1, §2

[6] = target: T8, human FcγRIIIa(V) (allotype V158) (human, UniProt P08637 17-208, limits assumed); assay: as above
T8 construct: also called hFcgRIIIa(V)
T8 sequence (P08637 other isoform, or with tags, fused parts or gaps limits assumed): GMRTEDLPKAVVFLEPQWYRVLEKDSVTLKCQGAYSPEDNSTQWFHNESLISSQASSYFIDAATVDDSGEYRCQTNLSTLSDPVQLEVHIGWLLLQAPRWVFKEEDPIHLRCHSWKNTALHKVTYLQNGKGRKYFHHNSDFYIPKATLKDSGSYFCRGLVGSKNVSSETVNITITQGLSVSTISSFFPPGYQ
Description: as §1, §2

T2 sequence (P08637 other isoform, or with tags, fused parts or gaps limits assumed): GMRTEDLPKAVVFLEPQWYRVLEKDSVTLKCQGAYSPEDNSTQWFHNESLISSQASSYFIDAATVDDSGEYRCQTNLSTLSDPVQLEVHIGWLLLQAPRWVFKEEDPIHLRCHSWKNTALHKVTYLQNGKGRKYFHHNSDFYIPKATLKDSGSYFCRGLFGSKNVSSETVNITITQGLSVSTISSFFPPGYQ
T3 sequence (P12314 16-292 limits assumed): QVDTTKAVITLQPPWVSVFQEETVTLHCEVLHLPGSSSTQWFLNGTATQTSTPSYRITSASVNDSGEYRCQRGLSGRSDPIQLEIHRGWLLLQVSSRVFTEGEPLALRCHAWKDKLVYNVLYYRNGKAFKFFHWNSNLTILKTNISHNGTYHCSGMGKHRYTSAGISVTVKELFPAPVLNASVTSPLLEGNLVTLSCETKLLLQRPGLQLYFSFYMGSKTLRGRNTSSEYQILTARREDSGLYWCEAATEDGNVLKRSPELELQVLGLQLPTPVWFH

KD(IIaR)/KD(IIb) (human FcγRIIb [1]): 15
B1: IL6R-BP087/IL6R-L (antibody, human IgG1, name in EU numbering)
heavy: QVQLQESGPGLVKPSETLSLTCAVSGHSISHDHAWSWVRQPPGEGLEWIGFISYSGITNYNPSLQGRVTISRDNSKNTLYLQMNSLRAEDTAVYYCARSLARTTAMDYWGEGTLVTVSSASTKGPSVFPLAPSSKSTSGGTAALGCLVKDYFPEPVTVSWNSGALTSGVHTFPAVLQSSGLYSLSSVVTVPSSSLGTQTYICNVNHKPSNTKVDKKVEPKSCDKTHTCPPCPAPEYLGGDSVFLFPPKPKDTLMISRTPEVTCVVVDVSHEDPEVKFNWYVDGVEVHNAKTKPREEQYNSTYRVVSVLTVLHQDWLNGKEYKCKVSNKALPKPIEKTISKAKGQPREPQVYTLPPSRDELTKNQVSLTCLVKGFYPSDIAVEWESNGQPENNYKTTPPVLDSDGSFFLYSKLTVDKSRWQQGNVFSCSVMHEALHNHYTQESLSLSP
light: DIQMTQSPSSLSASVGDRVTITCRASQDISSYLNWYQQKPGKAPKLLIYYTSRLHSGVPSRFSGSGSGTDFTFTISSLQPEDIATYYCQQGNTLPYTFGQGTKVEIK
notes: Alterations introduced into IL6R-B3 (EU numbering)

KD(IIaR)/KD(IIb) (human FcγRIIb [1]): 15.5
B2: IL6R-BP089/IL6R-L (antibody, human IgG1, name in EU numbering)
heavy: QVQLQESGPGLVKPSETLSLTCAVSGHSISHDHAWSWVRQPPGEGLEWIGFISYSGITNYNPSLQGRVTISRDNSKNTLYLQMNSLRAEDTAVYYCARSLARTTAMDYWGEGTLVTVSSASTKGPSVFPLAPSSKSTSGGTAALGCLVKDYFPEPVTVSWNSGALTSGVHTFPAVLQSSGLYSLSSVVTVPSSSLGTQTYICNVNHKPSNTKVDKKVEPKSCDKTHTCPPCPAPEYLGGDSVFLFPPKPKDTLMISRTPEVTCVVVDVSHEDPEVKFNWYVDGVEVHNAKTKPREEQYNSTYRVVSVLTVLHQDWLNGKEYKCKVSNAALPKPIEKTISKAKGQPREPQVYTLPPSRDELTKNQVSLTCLVKGFYPSDIAVEWESNGQPENNYKTTPPVLDSDGSFFLYSKLTVDKSRWQQGNVFSCSVMHEALHNHYTQESLSLSP
light: DIQMTQSPSSLSASVGDRVTITCRASQDISSYLNWYQQKPGKAPKLLIYYTSRLHSGVPSRFSGSGSGTDFTFTISSLQPEDIATYYCQQGNTLPYTFGQGTKVEIK
notes: as for B1

KD(IIaR)/KD(IIb) (human FcγRIIb [1]): 18.5
B3: IL6R-BP180/IL6R-L (antibody, human IgG1, name in EU numbering)
heavy: QVQLQESGPGLVKPSETLSLTCAVSGHSISHDHAWSWVRQPPGEGLEWIGFISYSGITNYNPSLQGRVTISRDNSKNTLYLQMNSLRAEDTAVYYCARSLARTTAMDYWGEGTLVTVSSASTKGPSVFPLAPSSKSTSGGTAALGCLVKDYFPEPVTVSWNSGALTSGVHTFPAVLQSSGLYSLSSVVTVPSSSLGTQTYICNVNHKPSNTKVDKKVEPKSCDKTHTCPPCPAPELLGDDSVFLFPPKPKDTLMISRTPEVTCVVVDVSHEDGEVKFNWYVDGVEVHNAKTKPREEQYNSTYRVVSVLTVLHQDWLNGKEYKCKVSNKALPKPIEKTISKAKGQPREPQVYTLPPSRDELTKNQVSLTCLVKGFYPSDIAVEWESNGQPENNYKTTPPVLDSDGSFFLYSKLTVDKSRWQQGNVFSCSVMHEALHNHYTQESLSLSP
light: DIQMTQSPSSLSASVGDRVTITCRASQDISSYLNWYQQKPGKAPKLLIYYTSRLHSGVPSRFSGSGSGTDFTFTISSLQPEDIATYYCQQGNTLPYTFGQGTKVEIK
notes: as for B1

KD(IIaR)/KD(IIb) (human FcγRIIb [1]): 15.7
B4: IL6R-BP179/IL6R-L (antibody, human IgG1, name in EU numbering)
heavy: QVQLQESGPGLVKPSETLSLTCAVSGHSISHDHAWSWVRQPPGEGLEWIGFISYSGITNYNPSLQGRVTISRDNSKNTLYLQMNSLRAEDTAVYYCARSLARTTAMDYWGEGTLVTVSSASTKGPSVFPLAPSSKSTSGGTAALGCLVKDYFPEPVTVSWNSGALTSGVHTFPAVLQSSGLYSLSSVVTVPSSSLGTQTYICNVNHKPSNTKVDKKVEPKSCDKTHTCPPCPAPELLGDDSVFLFPPKPKDTLMISRTPEVTCVVVDVSHEDGEVKFNWYVDGVEVHNAKTKPREEQYNSTYRVVSVLTVLHQDWLNGKEYKCKVSNAALPKPIEKTISKAKGQPREPQVYTLPPSRDELTKNQVSLTCLVKGFYPSDIAVEWESNGQPENNYKTTPPVLDSDGSFFLYSKLTVDKSRWQQGNVFSCSVMHEALHNHYTQESLSLSP
light: DIQMTQSPSSLSASVGDRVTITCRASQDISSYLNWYQQKPGKAPKLLIYYTSRLHSGVPSRFSGSGSGTDFTFTISSLQPEDIATYYCQQGNTLPYTFGQGTKVEIK
notes: as for B1

KD(IIaR)/KD(IIb) (human FcγRIIb [1]): 15.9
B5: IL6R-BP151/IL6R-L (antibody, human IgG1, name in EU numbering)
heavy: QVQLQESGPGLVKPSETLSLTCAVSGHSISHDHAWSWVRQPPGEGLEWIGFISYSGITNYNPSLQGRVTISRDNSKNTLYLQMNSLRAEDTAVYYCARSLARTTAMDYWGEGTLVTVSSASTKGPSVFPLAPSSKSTSGGTAALGCLVKDYFPEPVTVSWNSGALTSGVHTFPAVLQSSGLYSLSSVVTVPSSSLGTQTYICNVNHKPSNTKVDKKVEPKSCDKTHTCPPCPAPDYLGDDSVFLFPPKPKDTLMISRTPEVTCVVVDVSHEDPEVKFNWYVDGVEVHNAKTKPREEQYNSTYRVVSVLTVLHQDWLNGKEYKCKVSNAALPRPIEKTISKAKGQPREPQVYTLPPSRDELTKNQVSLTCLVKGFYPSDIAVEWESNGQPENNYKTTPPVLDSDGSFFLYSKLTVDKSRWQQGNVFSCSVMHEALHNHYTQESLSLSP
light: DIQMTQSPSSLSASVGDRVTITCRASQDISSYLNWYQQKPGKAPKLLIYYTSRLHSGVPSRFSGSGSGTDFTFTISSLQPEDIATYYCQQGNTLPYTFGQGTKVEIK
notes: as for B1

relative binding activity (human FcγRIIIa(F)): 1 % of GpH7-B3/GpL16-k0
B6: GpH7-B3 N325F/GpL16-k0 (antibody, human IgG1)
heavy: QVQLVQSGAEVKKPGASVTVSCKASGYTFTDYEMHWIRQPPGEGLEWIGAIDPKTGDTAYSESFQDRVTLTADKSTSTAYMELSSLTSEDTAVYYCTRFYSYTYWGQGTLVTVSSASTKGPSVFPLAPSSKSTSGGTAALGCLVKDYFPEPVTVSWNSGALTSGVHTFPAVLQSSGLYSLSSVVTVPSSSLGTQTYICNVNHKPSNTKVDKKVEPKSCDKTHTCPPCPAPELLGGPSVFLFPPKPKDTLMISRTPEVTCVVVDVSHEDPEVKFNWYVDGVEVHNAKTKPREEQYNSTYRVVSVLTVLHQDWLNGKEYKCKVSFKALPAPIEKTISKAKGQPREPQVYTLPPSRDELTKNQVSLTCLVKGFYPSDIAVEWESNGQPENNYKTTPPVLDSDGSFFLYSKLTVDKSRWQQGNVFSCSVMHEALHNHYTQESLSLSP
light: DIVMTQSPLSLPVTPGEPASISCQASESLVHSNRNTYLHWYLQKPGQSPQLLIYKVSNRFSGVPDRFSGSGSGTDFTLKISRVEAEDVGVYYCSQNTHVPPTFGQGTKVEIE
notes: Anti-glypican-3 human IgG1 with B3 constant region (G1d with K439E); also called B3 variant; copies: 2 + 2

relative binding activity (human FcγRIIIa(F)): 12 % of GpH7-B3/GpL16-k0
B7: GpH7-B3 Y300R/GpL16-k0 (antibody, human IgG1)
heavy: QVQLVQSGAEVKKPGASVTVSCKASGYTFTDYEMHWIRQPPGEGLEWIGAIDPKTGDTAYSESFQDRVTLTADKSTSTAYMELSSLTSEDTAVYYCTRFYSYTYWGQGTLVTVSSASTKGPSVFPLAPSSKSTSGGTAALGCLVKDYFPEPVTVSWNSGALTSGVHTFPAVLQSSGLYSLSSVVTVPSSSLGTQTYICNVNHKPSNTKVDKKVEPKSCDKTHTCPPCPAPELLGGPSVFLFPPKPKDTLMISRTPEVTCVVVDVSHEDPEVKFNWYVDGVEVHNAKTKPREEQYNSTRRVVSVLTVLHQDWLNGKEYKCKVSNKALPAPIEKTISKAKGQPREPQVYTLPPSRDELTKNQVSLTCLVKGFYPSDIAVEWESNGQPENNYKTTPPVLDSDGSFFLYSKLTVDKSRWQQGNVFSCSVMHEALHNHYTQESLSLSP
light: DIVMTQSPLSLPVTPGEPASISCQASESLVHSNRNTYLHWYLQKPGQSPQLLIYKVSNRFSGVPDRFSGSGSGTDFTLKISRVEAEDVGVYYCSQNTHVPPTFGQGTKVEIE
notes: as for B6

BINDING AMOUNT (RU) (human FcγRIa): 367 RU
BINDING AMOUNT (RU) [2]: 92.8 RU
BINDING AMOUNT (RU) [3]: 37.5 RU
BINDING AMOUNT (RU) (human FcγRIIb [4]): 71.8 RU
BINDING AMOUNT (RU) [5]: 3.4 RU
BINDING AMOUNT (RU) [6]: 15.5 RU
B8: antibody containing VH3-IgG4-F890 for the heavy chain and L(WT)-CK for the light chain (antibody)
heavy: QVQLQESGPGLVKPSETLSLTCAVSGHSISHDHAWSWVRQPPGEGLEWIGFISYSGITNYNPSLQGRVTISRDNSKNTLYLQMNSLRAEDTAVYYCARSLARTTAMDYWGEGTLVTVSSASTKGPSVFPLAPCSRSTSESTAALGCLVKDYFPEPVTVSWNSGALTSGVHTFPAVLQSSGLYSLSSVVTVPSSSLGTKTYTCNVDHKPSNTKVDKRVESKYGPPCPPCPAPEFLGGPSVFLFPPKPKDTLYISRTPEVTCVVVDVSQEDPEVQFNWYVDGVEVHNAKTKPREEQFNSTYRVVSVLTVLHQDWLNGKEYKCKVSNKGLPSSIEKTISKAKGQPREPQVYTLPPSQEEMTKNQVSLTCLVKGFYPSDIAVEWESNGQPENNYKTTPPVLDSDGSFFLYSRLTVDKSRWQEGNVFSCSVMHEALHYHVTQKSLSLSL
light: not shown
notes: VH3-IgG4 with M252Y/N434Y/Y436V (EU numbering)

BINDING AMOUNT (RU) (human FcγRIa): 1.2 RU
BINDING AMOUNT (RU) [2]: -0.2 RU
BINDING AMOUNT (RU) [3]: -0.7 RU
BINDING AMOUNT (RU) (human FcγRIIb [4]): 0.4 RU
BINDING AMOUNT (RU) [5]: -1.7 RU
BINDING AMOUNT (RU) [6]: -0.5 RU
B9: antibody containing VH3-IgG4-F939 for the heavy chain and L(WT)-CK for the light chain (antibody)
heavy: QVQLQESGPGLVKPSETLSLTCAVSGHSISHDHAWSWVRQPPGEGLEWIGFISYSGITNYNPSLQGRVTISRDNSKNTLYLQMNSLRAEDTAVYYCARSLARTTAMDYWGEGTLVTVSSASTKGPSVFPLAPCSRSTSESTAALGCLVKDYFPEPVTVSWNSGALTSGVHTFPAVLQSSGLYSLSSVVTVPSSSLGTKTYTCNVDHKPSNTKVDKRVESKYGPPCPPCPAPEFRGGPKVFLFPPKPKDTLYISRTPEVTCVVVDVSQEDPEVQFNWYVDGVEVHNAKTKPREEQFNSTYRVVSVLTVLHQDWLNGKEYKCKVSNKGLPSSIEKTISKAKGQPREPQVYTLPPSQEEMTKNQVSLTCLVKGFYPSDIAVEWESNGQPENNYKTTPPVLDSDGSFFLYSRLTVDKSRWQEGNVFSCSVMHEALHYHVTQKSLSLSL
light: not shown
notes: VH3-IgG4 with L235R/S239K/M252Y/N434Y/Y436V (EU numbering)

Reference: patent US20230257470A1 (published 2023)
